Source: US20220273830A1, “COMPOUNDS AND METHODS OF USE” (EDINBURGH MOLECULAR IMAGING LIMITED, priority 2019, published 2022)
“And” between values parts separate entries of the source, which are not always exact repeats. Equal values may be shown once. Positions of bridges follow the written chain, without caps; N, C: chain ends. Residues, ends and D or L forms follow the SMILES beside them. *: point of attachment. DOTA = O=C(O)CN1CCN(CC(=O)O)CCN(CC(=O)*)CCN(CC(=O)O)CC1

Assays:
[1] = test system: tumours; settings: human, in vivo
Method: The radiolabelling procedure used was as follows.
(§1) Pre-therapeutic positron emission tomography/computed tomography (PET/CT) imaging was carried out 1 hour and 3 hours post injection with the imaging agent. […] Patient 1 was then administered with the therapeutic agent. […] single-photon emission computed tomography (SPECT) imaging was then carried out 1.5 hours, 17 hours, 41 hours, 65 hours and 141 hours post injection with the therapeutic agent.
(§2) Patient 2 was then administered with the therapeutic agent. […] SPECT imaging was then carried out 4.5 hours, 20 hours, 45 hours, 67 hours and 141 hours post injection with the therapeutic agent.
(§3) PET/CT imaging was performed using a Siemens Biograph mCT Flow PET/CT. SPECT imaging was performed using a Siemens Intevo SPECT/CT.

[2] = clinical; settings: for accumulation and retention in tumours (SPECT): up to 141 hours post injection
Method: A dosimetry study was carried out using Compound 3 to investigate the suitability of the compounds described herein for use in imaging and radiotherapy.
The radiolabelling procedure used was as follows. Compound 3 was dissolved in ultrapure water (2 μg/μl) and 1.5 mL of 0.4 M sodium acetate buffer at pH 4.8 (8 mg/mL). Gentisic acid was added and the mixture was transferred to a ^177Lu V-vial. The vial was heated for 25 minutes at 95° C.
as §1, §2, §3

[3] = biological target: cMet receptor (Homo sapiens, UniProt P08581); test: Competition binding assay by fluorescence polarisation (FP); settings: mean; competition FP vs Cy5-labelled probe 20 nM, cMet receptor 50 nM, PBS pH 7.4 with 0.01% Tween 20
cMet receptor, sequence (P08581 25-932 limits assumed): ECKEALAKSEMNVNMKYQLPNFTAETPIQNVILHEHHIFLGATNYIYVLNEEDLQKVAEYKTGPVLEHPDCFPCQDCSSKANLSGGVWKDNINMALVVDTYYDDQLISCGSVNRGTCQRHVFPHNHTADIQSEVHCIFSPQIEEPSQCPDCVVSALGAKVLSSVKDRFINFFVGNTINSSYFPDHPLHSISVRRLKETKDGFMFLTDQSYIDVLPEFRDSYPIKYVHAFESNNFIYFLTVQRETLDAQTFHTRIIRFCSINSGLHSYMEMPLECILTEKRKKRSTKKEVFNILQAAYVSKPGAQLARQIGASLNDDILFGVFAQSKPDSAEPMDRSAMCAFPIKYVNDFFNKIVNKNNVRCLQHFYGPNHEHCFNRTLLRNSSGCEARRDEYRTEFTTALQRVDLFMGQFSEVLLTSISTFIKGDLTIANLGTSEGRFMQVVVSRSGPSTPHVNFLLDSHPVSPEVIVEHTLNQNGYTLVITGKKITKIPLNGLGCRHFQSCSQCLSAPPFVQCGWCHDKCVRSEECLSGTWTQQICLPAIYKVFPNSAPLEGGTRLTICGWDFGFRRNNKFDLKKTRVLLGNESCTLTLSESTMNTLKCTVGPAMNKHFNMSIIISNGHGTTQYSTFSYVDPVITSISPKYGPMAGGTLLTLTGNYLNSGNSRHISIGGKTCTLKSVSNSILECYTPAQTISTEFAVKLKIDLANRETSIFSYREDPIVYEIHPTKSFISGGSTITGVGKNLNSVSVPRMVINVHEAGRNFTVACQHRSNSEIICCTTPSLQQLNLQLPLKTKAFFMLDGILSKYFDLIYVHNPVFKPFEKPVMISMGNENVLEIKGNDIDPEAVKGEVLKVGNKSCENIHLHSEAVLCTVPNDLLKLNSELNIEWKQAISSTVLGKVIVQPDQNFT
Method: The half maximal inhibitory concentration (IC50) and dissociation constant (Kd) values were determined by competition fluorescence polarisation (FP) assay for the binding of cMet binding cyclic peptide (unlabelled), cMet-DOTA (Compound 3) and cMet-DOTAGA (Compound 4) to cMet receptor.
The principle of the fluorescence polarisation method can briefly be described as follows:
Monochromatic light passes through a […] polarizing filter and excites fluorescent molecules in the sample. Only those molecules that are oriented properly in the vertically polarized plane adsorb light, become excited, and subsequently emit light. The emitted light is measured in both horizontal and vertical planes. The anisotropy value (A), is the ratio between the light intensities following the equation:
A=(Intensity with horizontal polarizer—Intensity with vertical polarizer)/(Intensity with horizontal polarizer+2* Intensity with vertical polarizer).
The fluorescence anisotropy measurements were performed in a 96-well flat bottom plate using a Molecular Devices M5 multi-mode plate reader.
The assay buffer used was phosphate-buffered saline (PBS), pH 7.4 with 0.01% Tween 20. […]
IC50 values were determined by data fitting with the following equation using KaleidaGraph v4.03: […]
Kd values were determined by data fitting with the following equation using KaleidaGraph v4.03: […]

[4] = patient 1, 835 MBq, tumours (individual clusters)
[5] = patient 2, 959 MBq, tumours (individual VOIs)

In the case of `CC(=O)N[C@@H](C)C(=O)NCC(=O)N[C@@H](CO)C(=O)N[C@H]1CSSC[C@@H](C(=O)N[C@@H](Cc2ccc(O)cc2)C(=O)N[C@@H](CCC(=O)O)C(=O)N[C@H](C(=O)N[C@@H](CCC(=O)O)C(=O)NCC(=O)N[C@H](C(=O)NCC(=O)NCC(=O)NCC(=O)N[C@@H](CCCCNC(=O)CN2CCN(CC(=O)O)CCN(CC(=O)O)CCN(CC(=O)O)CC2)C(N)=O)[C@@H](C)O)[C@@H](C)O)NC(=O)[C@H](Cc2c[nH]c3ccccc23)NC(=O)[C@@H]2CSSC[C@H](NC(=O)[C@H](Cc3ccc(O)cc3)NC1=O)C(=O)N[C@@H](CO)C(=O)NCC(=O)N1CCC[C@H]1C(=O)N1CCC[C@H]1C(=O)N[C@@H](CCCNC(=N)N)C(=O)N[C@@H](Cc1ccccc1)C(=O)N[C@@H](CCC(=O)O)C(=O)N2` [^68Ga-Compound 3, metal not drawn] (Ac-AGSCYCSGPPRFECWCYETEGTGGGK(DOTA)-NH2; disulfide 4-16, 6-14), the “accumulation in tumours (PET/CT)” value [1] is reported as “accumulation”.
Work on `CC(=O)N[C@@H](C)C(=O)NCC(=O)N[C@@H](CO)C(=O)N[C@H]1CSSC[C@@H](C(=O)N[C@@H](Cc2ccc(O)cc2)C(=O)N[C@@H](CCC(=O)O)C(=O)N[C@H](C(=O)N[C@@H](CCC(=O)O)C(=O)NCC(=O)N[C@H](C(=O)NCC(=O)NCC(=O)NCC(=O)N[C@@H](CCCCNC(=O)CN2CCN(CC(=O)O)CCN(CC(=O)O)CCN(CC(=O)O)CC2)C(N)=O)[C@@H](C)O)[C@@H](C)O)NC(=O)[C@H](Cc2c[nH]c3ccccc23)NC(=O)[C@@H]2CSSC[C@H](NC(=O)[C@H](Cc3ccc(O)cc3)NC1=O)C(=O)N[C@@H](CO)C(=O)NCC(=O)N1CCC[C@H]1C(=O)N1CCC[C@H]1C(=O)N[C@@H](CCCNC(=N)N)C(=O)N[C@@H](Cc1ccccc1)C(=O)N[C@@H](CCC(=O)O)C(=O)N2` [^177Lu-Compound 3, metal not drawn] (Ac-AGSCYCSGPPRFECWCYETEGTGGGK(DOTA)-NH2; disulfide 4-16, 6-14) yielded a half-life ([2]; human, kidney (left), Half-life, patient 2, 959 MBq) of 2220 min, a half-life ([2]; human, kidney (left), Halflife, patient 1, 835 MBq) of 1260 min and a half-life ([2]; human, kidney (right), Half-life, patient 2, 959 MBq) of 2400 min. For the same compound, the half-life ([2]; human, kidney (right), Halflife, patient 1, 835 MBq) was 1260 min, the half-life ([2]; human, liver, Half-life, patient 2, 959 MBq) was 4620 min and the half-life ([2]; human, liver, Halflife, patient 1, 835 MBq) was 4380 min. The half-life ([2]; human, spleen, Half-life, patient 2, 959 MBq) was 3480 min, the half-life ([2]; human, spleen, Halflife, patient 1, 835 MBq) was 2340 min and the half-life ([2]; human, tumours (individual VOIs), Half-life, patient 2, 959 MBq) was 1680 min. For the same compound, the half-life ([2]; human, tumours (individual clusters), Halflife, patient 1, 835 MBq) was 2520 min, the Dose ([2]; patient 1, 835 MBq, kidney (left)) was 1.04 Gy and the Dose ([2]; patient 1, 835 MBq, kidney (right)) was 1.02 Gy. The Dose [2, 4] was 0.4 Gy and 0.43 Gy and 0.36 Gy, the Halflife [2, 4] was 48 h and 32 h and 59 h and the “accumulation and retention in tumours (SPECT)” value ([2]; patient 1, 835 MBq) was “accumulation and retention”. For the same compound, the Dose ([2]; patient 2, 959 MBq, kidney (left), VOI 2466) was 1.87 Gy, the Dose ([2]; patient 2, 959 MBq, kidney (left), VOI K-l-iso (Isocont.)) was 1.73 Gy and the Dose ([2]; patient 2, 959 MBq, kidney (right), VOI 2548) was 1.06 Gy. The Dose [2, 5] was 0.08 Gy and 0.05 Gy and 0.04 Gy, the half-life [2, 5] was 1620 min and the “accumulation and retention in tumours (SPECT)” value ([2]; patient 2, 959 MBq) was “accumulation and retention”.
Compound `CC(=O)N[C@@H](C)C(=O)NCC(=O)N[C@@H](CO)C(=O)N[C@H]1CSSC[C@@H](C(=O)N[C@@H](Cc2ccc(O)cc2)C(=O)N[C@@H](CCC(=O)O)C(=O)N[C@H](C(=O)N[C@@H](CCC(=O)O)C(=O)NCC(=O)N[C@H](C(=O)NCC(=O)NCC(=O)NCC(=O)N[C@@H](CCCCN)C(N)=O)[C@@H](C)O)[C@@H](C)O)NC(=O)[C@H](Cc2c[nH]c3ccccc23)NC(=O)[C@@H]2CSSC[C@H](NC(=O)[C@H](Cc3ccc(O)cc3)NC1=O)C(=O)N[C@@H](CO)C(=O)NCC(=O)N1CCC[C@H]1C(=O)N1CCC[C@H]1C(=O)N[C@@H](CCCNC(=N)N)C(=O)N[C@@H](Cc1ccccc1)C(=O)N[C@@H](CCC(=O)O)C(=O)N2` [cMet peptide (unlabelled)] (HELM PEPTIDE1{[ac].A.G.S.C.Y.C.S.G.P.P.R.F.E.C.W.C.Y.E.T.E.G.T.G.G.G.K.[am]}$PEPTIDE1,PEPTIDE1,5:R3-17:R3|PEPTIDE1,PEPTIDE1,7:R3-15:R3$$$V2.0) has an IC50 [3] of 320 ± 37 nM and a Kd [3] of 6.9 ± 0.8 nM.
